Measured values reported in the supplement of paper PMC10899765.
Several values for one entry are separate records, joined by “and”; a condition that tells them apart may be missing. Equal entries are not always repeated.

Assays:
Settings in all cases: 20 nM; 72 h
[1] = tested on: MCF10A; assay: one-nucleolus phenotype percent effect (relative to siNT 0% and siNOL11 100%); higher = more cells with one nucleolus (ribosome biogenesis inhibition)
Description: (§1)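 After 72 h, cells were fixed and stained with Hoechst and anti-fibrillarin, and nucleoli per nucleus were counted with CellProfiler. Values are plate-adjusted percent effect for the one-nucleolus and 5+ nucleoli phenotypes, normalised to siNT (0%) and to the positive controls siNOL11 or siKIF11 (100%), as the mean of biological triplicates. Percent viability is the nuclei count relative to siNT.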

[2] = tested on: MCF10A; assay: percent viability (nuclei count relative to siNT); higher = more viable cells
Description: as §1

[3] = tested on: MCF10A; assay: 5+ nucleoli phenotype percent effect (relative to siNT 0% and siKIF11 100%); higher = more cells with five or more nucleoli
Description: as §1

| Sequence | one-nucleolus phenotype percent effect [1] | percent viability [2] | 5+ nucleoli phenotype percent effect [3] |
| --- | --- | --- | --- |
| UACGUAGAUAUAUAUGUAUUUU [hsa-miR-1277-3p] | -20.9% | 135% | 41.8% |
| UACGUCAUCGUUGUCAUCGUCA [hsa-miR-598] | -26.8% | 151% | 47.8% |
| UACUAACUGCAGAUUCAAGUGA [hsa-miR-4637] | -24.1% | 140% | 24.1% |
| UACUCAAAAAGCUGUCAGUCA [hsa-miR-888-5p] | -13.4% | 82.3% | 11.8% |
| UACUCAGGAGAGUGGCAAUCAC [hsa-miR-510] | 41.9% | 20.5% | -26.8% |
| UACUCCAGAGGGCGUCACUCAUG [hsa-miR-508-5p] | 19.6% | 60.6% | 0.947% |
| UACUCUGGAGAGUGACAAUCAUG [hsa-miR-514a-5p] | -13.3% and -15.4% | 56.4% and 66.9% | 29.4% and 19% |
| UACUGCAGACAGUGGCAAUCA [hsa-miR-509-5p] | 7.14% | 48.8% | 5.43% |
| UACUGCAGACGUGGCAAUCAUG [hsa-miR-509-3-5p] | 26.3% | 26.5% | -30.4% |
| UACUGCAUCAGGAACUGAUUGGA [hsa-miR-217] | 0.807% | 62.9% | 1.56% |
| UACUUGGAAAGGCAUCAGUUG [hsa-miR-890] | 49.1% | 21% | -34.1% |
| UACUUUUCUAGGUUGUUGGGG [hsa-miR-5003-3p] | 55.6% | 24.9% | -39.5% |
| UAGACCAUCUUUCUAGAGUAU [hsa-miR-6502-3p] | -0.125% | 102% | -0.273% |
| UAGACGUGGUGAAGGAUUGAGUG [hsa-miR-6863] | 1.02% | 47.3% | -16.5% |
| UAGAGAGGGGAAGGAUGUGAUGU [hsa-miR-6758-5p] | 12.9% | 44.4% | -13.9% |
| UAGAGGAAGCUGUGGAGAGA [hsa-miR-3125] | 13.8% | 23.3% | -14.5% |
| UAGAGUCUGGCUGAUAUGGUUU [hsa-miR-5007-5p] | 14% | 49.3% | -8% |
| UAGAUAAAAUAUUGGUACCUG [hsa-miR-577] | -23.7% | 113% | 29.6% |
| UAGAUCUUUGACUCUGGCAGUCUCCAGG [hsa-miR-7161-3p] | -23.9% | 87.7% | 28.4% |
| UAGCAAAAACUGCAGUUACUUU [hsa-miR-548p] | -21.8% | 114% | 17.2% |
| UAGCAAGAGAACCAUUACCAUU [hsa-miR-451b] | -10.8% | 71.6% | 3.42% |
| UAGCAAUACAGUACAAAUAUAGU [hsa-miR-4703-5p] | -22% | 131% | 32.3% |
| UAGCACCAUCUGAAAUCGGUUA [hsa-miR-29a-3p] | -24% | 65.1% | 46.9% |

| Sequence | one-nucleolus phenotype percent effect [1] | percent viability [2] | 5+ nucleoli phenotype percent effect [3] |
| --- | --- | --- | --- |
| UAGCACCAUUUGAAAUCAGUGUU [hsa-miR-29b-3p] | -20.6% | 63.7% | 20.2% |
| UAGCACCAUUUGAAAUCGGUUA [hsa-miR-29c-3p] | -21% | 138% | 38% |
| UAGCAGCACAGAAAUAUUGGC [hsa-miR-195-5p] | 13.4% | 26.4% | -10.1% |
| UAGCAGCACAUAAUGGUUUGUG [hsa-miR-15a-5p] | 40.1% | 17.3% | -43.7% |
| UAGCAGCACAUCAUGGUUUACA [hsa-miR-15b-5p] | 26.9% | 26.5% | -4.86% |
| UAGCAGCACGUAAAUAUUGGCG [hsa-miR-16-5p] | 27.2% | 15.8% | -19.3% |
| UAGCAGCGGGAACAGUUCUGCAG [hsa-miR-503-5p] | 14.4% | 29.1% | -16.1% |
| UAGCCCCCAGGCUUCACUUGGCG [hsa-miR-3943] | 8.41% | 19.1% | -18.2% |
| UAGCCUUCAGAUCUUGGUGUUUU [hsa-miR-3614-3p] | 28.6% | 51.5% | -23.5% |
| UAGCGGGGAUUCCAAUAUUGG [hsa-miR-4781-5p] | 46.5% | 24.3% | -29.7% |
| UAGCUUAUCAGACUGAUGUUGA [hsa-miR-21-5p] | -9.39% | 121% | 11.7% |
| UAGGACACAUGGUCUACUUCU [hsa-miR-1197] | 7.44% | 61.7% | -9.77% |
| UAGGACUAGAUGUUGGAAUUA [hsa-miR-4759] | -7.56% | 33.2% | 10.4% |
| UAGGACUGUGCUUGGCACAUAG [hsa-miR-3169] | 1.07% | 27.4% | 20% |
| UAGGAGGGAAUAGUAAAAGCAG [hsa-miR-4779] | 54.7% | 15% | -25.8% |
| UAGGAUGGGGGUGAGAGGUG [hsa-miR-2392] | -3.85% | 50.4% | 17.7% |
| UAGGAUUACAAGUGUCGGCCAC [hsa-miR-3159] | -5% | 44.9% | -4.52% |
| UAGGCACACUUAAAGUUAUAGC [hsa-miR-5582-5p] | 37.6% | 13.8% | -17.3% |
| UAGGCAGUGUAUUGCUAGCGGCUGU [hsa-miR-449c-5p] | 17.4% | 17.7% | -19.5% |
| UAGGCAGUGUCAUUAGCUGAUUG [hsa-miR-34b-5p] | 35.6% | 17.6% | -23.8% |
| UAGGCCACAGCCACCCAUGUGU [hsa-miR-4717-5p] | -8.66% | 23.3% | -6.97% |
| UAGGCCUUUAGAUCACUUAAA [hsa-miR-1245b-5p] | 19.2% | 21.5% | -5.02% |
